Holding throughout (experiment): cell-based or functional assay
Assay [1] addresses HLA-DR of the DR^int donor (HLA-DRB1 variant bound with intermediate affinity by MVR), on B cells and T cells (human).
For assay [2], the target named is HLA-DR of the DR^weak donor (HLA-DRB1 variant bound weakly by MVR), on B cells, T cells and EBV LCLs (human).
For assay [3], the target named is HLA-DR of the DR^str donor (HLA-DRB1 variant bound strongly by MVR), on B cells, T cells and EBV LCLs (human).

Where “and” joins values, the source holds several entries; their conditions need not be identical. Equal values may be shown once.

B1: MVR CAR (second-generation HLA-DR CAR, FLAG-tagged, from pELPS-FLAGMVRBBz, expressed on T cells or EBV LCLs) (protein)
chain: DYKDDDDKDIQMTQSSSYLSVSLGGRVTITCKASDHINNWLAWYQQKPGNAPRLLISGATSLETGVPSRFSGSGSGKDYTLSITSLQTEDVATYYCQQYWSTPFTFGSGTKLEIKGGGGSGGGGSGGGGSQVQLKESGPGLVAPSQSLSITSTVSGFSLSRYSVHWVRQPPGKGLEWLGMIWGGGSTDYNSALKSRLSISKDNSKSQVFLKMNSLQTDDTAMYYCARNEGDTTAGTWFAYWGQGTLVTVSSTTTPAPRPPTPAPTIASQPLSLRPEACRPAAGGAVHTRGLDFACDIYIWAPLAGTCGVLLLSLVITLYCKRGRKKLLYIFKQPFMRPVQTTQEEDGCSCRFPEEEEGGCELRVKFSRSADAPAYKQGQNQLYNELNLGRREEYDVLDKRRGRDPEMGGKPRRKNPQEGLYNELQKDKMAEAYSEIGMKGERRRGKGHDGLYQGLSTATKDTYDALHMQALPPR
For the molecule B1, the frequency of CAR T cells with two or more exhaustion markers (LAG-3, Tim-3, CTLA-4, PD-1) in assay [1] is 65.8%. Also, in assay [2], the frequency of CAR T cells with two or more exhaustion markers came out at 9.2%, the frequency of CD4+ MVR-CAR T cells with two or more polyfunctional markers after co-culture with DR^weak-EBV-LCLs came out at 31.6%, the frequency of CD8+ MVR-CAR T cells with two or more polyfunctional markers after co-culture with DR^weak-EBV-LCLs is 26.3% and the frequency of Tim-3 expressing CAR T cells was found to be 60.7%. The molecule further returned a surface CAR expression (MFI) relative to CD19 CAR T cells in assay [2] of 2 fold lower. For the same molecule, in assay [3], the frequency of CD4+ MVR-CAR T cells with two or more polyfunctional markers after co-culture with DR^str-EBV-LCLs is 71.3%; the frequency of CD8+ MVR-CAR T cells with two or more polyfunctional markers after co-culture with DR^str-EBV-LCLs turned out to be 29.4%; the granule influx into DR^str B cells and DR^str EBV LCLs relative to CD19 CAR T cells is 2 fold and 4 fold; the granule transfer rate to DR^str-EBV-LCLs relative to DR^weak-EBV-LCLs is 2 to 3 times higher.

For the origin of these results see patent publication US20200165342A1.
